Here are results for one molecule from doi:10.1101/406538 (bioRxiv, 2018).

The target in this assay is T1, ATI2-N, N-terminal region of ATG8 Interacting Protein 2 (M1-T193) (Arabidopsis thaliana, UniProt Q8VY98 1-193).
T1 sequence (looked up): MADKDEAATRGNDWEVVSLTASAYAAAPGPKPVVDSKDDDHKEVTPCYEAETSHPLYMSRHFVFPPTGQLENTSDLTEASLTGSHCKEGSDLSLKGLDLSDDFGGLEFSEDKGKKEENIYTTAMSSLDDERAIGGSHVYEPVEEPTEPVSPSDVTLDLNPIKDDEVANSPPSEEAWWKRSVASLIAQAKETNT
Briefly: NMR titration.

B1: ATG8f, processed form (1-117), recombinant (natural protein, Arabidopsis thaliana, UniProt Q8VYK7 1-117, looked up)
chain: MAKSSFKQEHDLEKRRAEAARIREKYPDRIPVIVEKAEKSDIPTIDKKKYLVPADLTVGQFVYVIRKRIKLSAEKAIFIFVDNVLPPAGALMSSVYEEKKDDDGFLYVTYSGENTFG
As to B1, the binding result was “binds”.
